We go through seven substances from paper PMC12654582.

Like-named read-outs stand apart in the source and are kept apart here.

The test system of data set [1] is PmrA I13M (Acinetobacter baumannii ATCC 19606). The experiment in a line: fluorescence anisotropy.
Data set [2] relates to PmrA M12I (Acinetobacter baumannii ATCC 19606). In words: fluorescence anisotropy.
Data set [3] has the same test system. The experiment in a line: fluorescence anisotropy. This is another data set of the same source.
Data set [4] concerns PmrA I13M (Acinetobacter baumannii ATCC 19606). In words: fluorescence anisotropy. The source holds these as a separate data set.
Data set [5] addresses phosphorylated PmrA D10N (Acinetobacter baumannii (strain ATCC 19606)). In words: native gel or EMSA; Native PAGE after reaction of 40 uM PmrA with 20 uM PmrB and ATP (phosphorylated PmrA); 14% Tris-glycine gel, 4 C.
For data set [6], the target named is phosphorylated PmrA G54E (Acinetobacter baumannii (strain ATCC 19606)). Described as above.
In data set [7] the target is phosphorylated PmrA I13M (Acinetobacter baumannii (strain ATCC 19606)). The description is as above.
Data set [8] has as its target phosphorylated PmrA M12I (Acinetobacter baumannii (strain ATCC 19606)). The description is as above.
For data set [9], the target named is phosphorylated PmrA S119T (Acinetobacter baumannii (strain ATCC 19606)). The data set is described as above.
Data set [10] deals with phosphorylated WT PmrA (Acinetobacter baumannii (strain ATCC 19606)). The description is as above.

As to AbpmrC_30mer FAM, the dissociation constant (Kd) in data set [1] was 0.0516 µM; in data set [2], 0.0423 µM; in data set [3] it was 21 µM; in data set [4], 17.4 µM.
“phosphorylated PmrA D10N (natural protein)”: the stoichiometry N in data set [5] turned out to be 2.
Substance “phosphorylated PmrA G54E (natural protein)” returned a stoichiometry N in [6] of 2.
As for “phosphorylated PmrA I13M (natural protein)”, the stoichiometry N in data set [7] came to 2.
In turn, “phosphorylated PmrA M12I (natural protein)” yielded a stoichiometry N in data set [8] of 2.
The substance “phosphorylated PmrA S119T (natural protein)” returned a stoichiometry N in data set [9] of 2.
The substance “phosphorylated WT PmrA (natural protein)” came in with a stoichiometry N in data set [10] of 2.
